According to publication PMC5716193:

Key:
[1] = target: Opbp[1–174] fragment after deletion of TRX (Drosophila); test: cross-linking
[2] = target: Thioredoxin-tagged Opbp[114–174] (Drosophila); test: cross-linking

Row | stoichiometry N [1] | stoichiometry N [2] | Substance
1 | 2 |  | Opbp[1–174] fragment after deletion of TRX (domain or fragment)
2 |  | 2 | Thioredoxin-tagged Opbp[114–174] (domain or fragment)
